± gives the standard deviation of the averaged measurements.
tested on: Saccharomyces cerevisiae; assay: protein stability index of tFT-peptide fusion (C-terminal peptide) (PSI (0-1 scale)); higher = more stable (slower turnover); conditions: genetic background: wild type; temperature: 30 C
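Further: PSI is a weighted mean of sequencing reads over stability bins, variants kept only with over 10 reads, mCherry proximal and sfGFP distal, peptide attached via GGGS linker.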

Point of comparison: RQTTTPHDRDGR, protein stability index 0.566 ± 0.049. Against it:
- AACSCGCLTGVG — within error, 0.527 ± 0.012
- VNTPGVDSDPVA — within error, 0.661 ± 0.11
- HRLGNRGGRTLG — higher, 0.6512 ± 0.0057
- FPPTALESMPSS — higher, 0.737 ± 0.042
- PLRVDLTHQQWS — within error, 0.574 ± 0.11
- VLAHCLFRCEKN — within error, 0.6062 ± 0.001
- PPLAMVLYSLFE — within error, 0.556 ± 0.013
- IWFRGGPGQVPV — higher, 0.683 ± 0.027
- THGFKQLTTPLD — higher, 0.676 ± 0.014
- FSAFFLFMFCFL — lower, 0.488 ± 0.025
- PLFSLRPSIPFS — higher, 0.72 ± 0.033
- AKPPLAPSRNAL — higher, 0.656 ± 0.029
- LSSLLFFLSWVV — within error, 0.529 ± 0.018
- PVLLVWDLPAVL — higher, 0.714 ± 0.086
- KIRRECIGSSVY — higher, 0.687 ± 0.019
- PALPNNVQCDCE — higher, 0.705 ± 0.073
- PRPLPPPPPLST — within error, 0.654 ± 0.061
- PPLFPYRPPQPT — within error, 0.697 ± 0.099
- APPPAYGPPPPP — higher, 0.692 ± 0.044
- VSNIVGRSLSCR — higher, 0.688 ± 0.014
- AESCRASVVFGV — higher, 0.6849 ± 0.0041
- PLFRHAPPSTLH — higher, 0.739 ± 0.014
- EDACARFVRLFL — higher, 0.678 ± 0.051
- PPPRTYLPRPRL — higher, 0.764 ± 0.0085
- VGIFSLLRCRGE — higher, 0.701 ± 0.035
- KRHCDRVLKMWH — within error, 0.641 ± 0.11
- LCLIGQPQTRVS — within error, 0.695 ± 0.17
- SLRLFVPVYPPP — within error, 0.576 ± 0.078
- GFKMSMGCEQSS — higher, 0.722 ± 0.076
- SSPRANAYASCP — within error, 0.726 ± 0.16
- GSWAVQEHMLLE — higher, 0.728 ± 0.065
- LALHPPPRVPPT — higher, 0.701 ± 0.036
- SYESKPPLSWDS — higher, 0.73 ± 0.11
- RPLLIYSPFPLF — within error, 0.662 ± 0.075
- LGPPPPPASVCR — higher, 0.647 ± 0.012
- GTRRIDSKDICP — higher, 0.742 ± 0.04
- VCAAWKCRLDAG — higher, 0.624 ± 0.0043
- GGHGRREEKGQR — higher, 0.6845 ± 0.0058
- SARFALSQAPPI — higher, 0.814 ± 0.12
- PALSVPPLLPPP — within error, 0.604 ± 0.0071
- PPPPPPLSPSPP — higher, 0.756 ± 0.011
- EKKEVSLVKKGR — higher, 0.695 ± 0.039
- NMQRKSRNQIID — higher, 0.707 ± 0.074
- GGGRFRRDRTYE — higher, 0.712 ± 0.028
- PPPPPLYLPRFV — higher, 0.675 ± 0.056
- LGGGGKNGSERV — higher, 0.696 ± 0.017
- RPPFSPPSDLPL — higher, 0.645 ± 0.025
- PPSRPPPRLLFA — within error, 0.659 ± 0.048
- RLFRRSPTPALR — higher, 0.8 ± 0.067
- QAHRHASPKTRT — higher, 0.654 ± 0.032
- AKEIVYAPRNPD — within error, 0.645 ± 0.053
- KKKENRQKREIQ — higher, 0.647 ± 0.029
- YCVMEVAGLEWE — higher, 0.69 ± 0.038
- FNPRIGGDCRSA — higher, 0.678 ± 0.031
- FPPPPPHTPSSA — higher, 0.694 ± 0.057
- SSFLLGCAFPLG — higher, 0.688 ± 0.0075
- WFCSVICGVFSV — within error, 0.5678 ± 0.00093
- NYRGEKYDKREH — within error, 0.569 ± 0.11
- QWSNSRPVGLTG — higher, 0.676 ± 0.017
- RRKRQKEGEIRE — higher, 0.7362 ± 0.0064
- CLFLRLSPSCSR — higher, 0.686 ± 0.04
- GAEKGSVPGGDK — within error, 0.654 ± 0.05
- RILLIRRKEKYL — within error, 0.5578 ± 0.0028
- YSIKSTVTYSVH — within error, 0.574 ± 0.066
- GRPKGGGIGEAG — higher, 0.6928 ± 0.00079
- SGVGPGNPPRPG — higher, 0.689 ± 0.011
- NRGHWECIRVQR — within error, 0.582 ± 0.059
- GTRGGGGWSCES — higher, 0.701 ± 0.06
- SNRRSSRSLYYM — higher, 0.698 ± 0.033
- WYRIPGASHGPP — higher, 0.662 ± 0.034
- LFHFLSPVALPS — higher, 0.6649 ± 0.0041
- GGLGVAGAGVVC — within error, 0.655 ± 0.042
- SSVSARHVPCSP — higher, 0.689 ± 0.027
- SGLGRETHGSYS — higher, 0.66 ± 0.012
- CHSLEDRPDDPC — higher, 0.758 ± 0.1
- LSLVSGWVIPGV — higher, 0.687 ± 0.051
- KKRQKKKKLIPQ — higher, 0.697 ± 0.024
- PSIPRTTLLSCN — within error, 0.607 ± 0.037
- RALPSPRSPLSI — within error, 0.616 ± 0.041
- GLPRCMDWSIRR — higher, 0.6764 ± 0.00099
- GLVRGGGGTVGG — within error, 0.81 ± 0.22
- RPPVGTPPLPHS — higher, 0.66 ± 0.0091
- GRPKNSYNQNSG — higher, 0.747 ± 0.013
- QKQQRIKQTAKK — higher, 0.703 ± 0.048
- LCRRGGRSACGS — higher, 0.7019 ± 0.0067
- RSVQSATSHGYQ — within error, 0.749 ± 0.15
- SPLPRPHRGPPP — within error, 0.58 ± 0.054
- YAKKIDTIIILT — within error, 0.54 ± 0.009
- PDPHTLTPTGHP — higher, 0.71 ± 0.026
- VPSGTHHPFTLS — higher, 0.751 ± 0.02
- CFDALLPEELSS — higher, 0.696 ± 0.044
- NEGGGGRGETVE — within error, 0.613 ± 0.021
- PPSPPALPRFLL — higher, 0.697 ± 0.025
- AELVVRNGVGGI — higher, 0.831 ± 0.077
- PRPLPPPLPCPP — higher, 0.682 ± 0.015
- LWVSSGASCFIL — higher, 0.7239 ± 0.0039
- EGGIKGKKVRTW — higher, 0.66 ± 0.0087
- GQAGGRVEVREP — higher, 0.6887 ± 0.005
- GHEKAGPSIGFL — higher, 0.644 ± 0.027
- LVRFTCRFFVGV — within error, 0.589 ± 0.0089

— the supplement of paper PMC10724198
